Test results reported in PMC6414199, “Bim escapes displacement by BH3-mimetic anti-cancer drugs by double-bolt locking both Bcl-XL and Bcl-2” (eLife, 2019).

What was measured:
[1] = target: T1, Bcl-XL single-cysteine mutant 152C, Alexa647-labelled (human, UniProt Q07817-1 1-233, Alexa 647-maleimide on the single cysteine at 152); test: FRET or BRET; purified proteins with liposomes, protein binding (FRET) and liposome permeabilization measured at the same time, ABT-263 titrated; conditions: both partners purified
[2] = target: T1, Bcl-XL single-cysteine mutant 152C, …; test: FRET or BRET; 4 nM Alexa568-labelled BimL or BimL-dCTS with increasing Alexa647-labelled Bcl-XL in samples containing mouse liver mitochondria; apparent Kd; conditions: both partners purified
[3] = target: T1, Bcl-XL single-cysteine mutant 152C, …; test: FRET or BRET; purified Alexa568-labelled BH3 protein (10 nM) and Alexa647-labelled Bcl-XL (40 nM) with liposomes, ABT-263 titrated in; 37 C, 1 h; relative displacements, not absolute affinity; conditions: both partners purified
[4] = target: T2, mCerulean3-Bcl-XL (human, UniProt Q07817-1 1-233); test: FRET or BRET; FLIM-FRET in live MCF-7 cells: mCer3-Bcl-XL or mCer3-Bcl-2 stably expressed (donor), Venus-BH3 protein transiently expressed (acceptor); binding curves of FLIM-FRET efficiency against the Venus:mCer3 intensity ratio, 25 C; untreated, DMSO, 20 uM ABT-263 (18-24 h) or 1.25-20 uM A-1155463, A-1331852, ABT-263; R values interpolated at ratio 0.5 (Bcl-XL) or 0.25 (Bcl-2), ^VBad4E signal subtracted; conditions: partners not purified
T2 construct: Bcl-XL, human; GGS linker between mCerulean3 and Bcl-XL; also called ^CBcl-XL; ^cBcl-XL; source: MCF-7 and BMK-DKO, stably transfected clones, in live cells; not shown: mCerulean3, N-terminal, kept

[5] = target: T3, mCerulean3-Bcl-2 (human, UniProt P10415 1-239); test: as above; conditions: partners not purified
T3 construct: Bcl-2, human; GGS linker between mCerulean3 and Bcl-2; also called ^CBcl-2; ^cBcl-2; source: MCF-7, stably transfected clone, in live cells; not shown: mCerulean3, N-terminal, kept
T3 sequence (P10415 whole entry): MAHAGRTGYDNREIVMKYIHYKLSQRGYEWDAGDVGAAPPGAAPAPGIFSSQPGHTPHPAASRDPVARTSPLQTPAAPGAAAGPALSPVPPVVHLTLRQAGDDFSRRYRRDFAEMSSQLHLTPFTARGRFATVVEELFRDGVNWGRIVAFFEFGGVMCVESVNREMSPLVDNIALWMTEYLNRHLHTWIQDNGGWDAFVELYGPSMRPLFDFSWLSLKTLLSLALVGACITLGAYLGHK

T1 sequence (Q07817 other isoform, or with tags, fused parts or gaps mutant): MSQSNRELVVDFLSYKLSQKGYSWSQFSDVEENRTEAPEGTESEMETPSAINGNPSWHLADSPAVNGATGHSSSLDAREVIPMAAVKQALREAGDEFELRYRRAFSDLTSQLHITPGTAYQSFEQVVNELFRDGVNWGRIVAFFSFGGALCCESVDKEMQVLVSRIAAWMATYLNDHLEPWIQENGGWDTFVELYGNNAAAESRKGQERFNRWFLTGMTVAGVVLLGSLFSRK
T2 sequence (Q07817 whole entry): as the sequence (Q07817 other isoform, or with tags, fused parts or gaps mutant) above, with C152V counted along it

Row | IC50 of ABT-263 for FRET of the pair [1] [nM] | Kd [2] [nM] | IC50 of ABT-263 for displacing the pair [3] [nM] | R_(ABT-263), % of FRET signal left with 20 uM ABT-263 [4] [%] | R_(ABT-263), % of FRET signal left with 20 uM ABT-263 [5] [%] | Binder
1 | > 700 | 3 ± 1 | > 4000 |  |  | BimL single-cysteine mutant 41C, Alexa568-labelled (natural protein, Alexa 568-maleimide on the single cysteine at 41) MAKQPSDVSSECDREGGQLQPAERPPQLRPGAPTSLQTEPCDRSPAPMSCDKSTQTPSPPCQAFNHYLSAMASIRQSQEEPEDLRPEIRIAQELRRIGDEFNETYTRRVFANDYREAEDHPQMVILQLLRFIFRLVWRRH
2 |  |  |  | 86.3 | 83.1 | Venus-BimEL (natural protein, mouse, UniProt O54918-1 1-196, looked up, BimEL, mouse; GGS linker after Venus; also called ^VBimEL; ^vBimEL; source: MCF-7 and BMK-DKO, transiently transfected, in live cells; not shown: Venus, N-terminal, kept) MAKQPSDVSSECDREGGQLQPAERPPQLRPGAPTSLQTEPQGNPDGEGDRCPHGSPQGPLAPPASPGPFATRSPLFIFVRRSSLLSRSSSGYFSFDTDRSPAPMSCDKSTQTPSPPCQAFNHYLSAMASIRQSQEEPEDLRPEIRIAQELRRIGDEFNETYTRRVFANDYREAEDHPQMVILQLLRFIFRLVWRRH
3 |  |  |  | 40 | 36.9 | Venus-BimEL-I146Y-L185E (natural protein, mouse, UniProt O54918-1 1-196, looked up, BimEL, mouse; also called ^vBimEL-I146Y-L185E; source: MCF-7, transiently transfected, in live cells; not shown: Venus, N-terminal, kept) MAKQPSDVSSECDREGGQLQPAERPPQLRPGAPTSLQTEPQGNPDGEGDRCPHGSPQGPLAPPASPGPFATRSPLFIFVRRSSLLSRSSSGYFSFDTDRSPAPMSCDKSTQTPSPPCQAFNHYLSAMASIRQSQEEPEDLRPEIRYAQELRRIGDEFNETYTRRVFANDYREAEDHPQMVILQLERFIFRLVWRRH
4 |  |  |  | 51 | 63 | Venus-BimEL-I188E (natural protein, mouse, UniProt O54918-1 1-196, looked up, BimEL, mouse; also called ^VBimEL-I188E; ^vBimEL-I188E; source: MCF-7, transiently transfected, in live cells; not shown: Venus, N-terminal, kept) MAKQPSDVSSECDREGGQLQPAERPPQLRPGAPTSLQTEPQGNPDGEGDRCPHGSPQGPLAPPASPGPFATRSPLFIFVRRSSLLSRSSSGYFSFDTDRSPAPMSCDKSTQTPSPPCQAFNHYLSAMASIRQSQEEPEDLRPEIRIAQELRRIGDEFNETYTRRVFANDYREAEDHPQMVILQLLRFEFRLVWRRH
5 |  |  |  | 63.9 | 73.3 | Venus-BimEL-I181E (natural protein, mouse, UniProt O54918-1 1-196, looked up, BimEL, mouse; also called ^vBimEL-I181E; source: MCF-7, transiently transfected, in live cells; not shown: Venus, N-terminal, kept) MAKQPSDVSSECDREGGQLQPAERPPQLRPGAPTSLQTEPQGNPDGEGDRCPHGSPQGPLAPPASPGPFATRSPLFIFVRRSSLLSRSSSGYFSFDTDRSPAPMSCDKSTQTPSPPCQAFNHYLSAMASIRQSQEEPEDLRPEIRIAQELRRIGDEFNETYTRRVFANDYREAEDHPQMVELQLLRFIFRLVWRRH
6 |  |  |  | 88.8 | 80.7 | Venus-BimEL-CTS2A (natural protein, mouse, UniProt O54918-1 1-196, looked up, BimEL, mouse; also called ^VBim-CTS2A; ^vBimEL-CTS2A; source: MCF-7, transiently transfected, in live cells; not shown: Venus, N-terminal, kept) MAKQPSDVSSECDREGGQLQPAERPPQLRPGAPTSLQTEPQGNPDGEGDRCPHGSPQGPLAPPASPGPFATRSPLFIFVRRSSLLSRSSSGYFSFDTDRSPAPMSCDKSTQTPSPPCQAFNHYLSAMASIRQSQEEPEDLRPEIRIAQELRRIGDEFNETYTRRVFANDYREAEDHPQMVILQLLAFIFALVWRRH
7 |  |  |  | 41.9 | 51 | Venus-BimEL-L185E (natural protein, mouse, UniProt O54918-1 1-196, looked up, BimEL, mouse; also called ^VBimEL-L185E; ^vBimEL-L185E; source: MCF-7, transiently transfected, in live cells; not shown: Venus, N-terminal, kept) MAKQPSDVSSECDREGGQLQPAERPPQLRPGAPTSLQTEPQGNPDGEGDRCPHGSPQGPLAPPASPGPFATRSPLFIFVRRSSLLSRSSSGYFSFDTDRSPAPMSCDKSTQTPSPPCQAFNHYLSAMASIRQSQEEPEDLRPEIRIAQELRRIGDEFNETYTRRVFANDYREAEDHPQMVILQLERFIFRLVWRRH
8 |  |  |  | 70.1 | 64.8 | Venus-BimEL-V192E (natural protein, mouse, UniProt O54918-1 1-196, looked up, BimEL, mouse; also called ^VBimEL-V192E; ^vBimEL-V192E; source: MCF-7, transiently transfected, in live cells; not shown: Venus, N-terminal, kept) MAKQPSDVSSECDREGGQLQPAERPPQLRPGAPTSLQTEPQGNPDGEGDRCPHGSPQGPLAPPASPGPFATRSPLFIFVRRSSLLSRSSSGYFSFDTDRSPAPMSCDKSTQTPSPPCQAFNHYLSAMASIRQSQEEPEDLRPEIRIAQELRRIGDEFNETYTRRVFANDYREAEDHPQMVILQLLRFIFRLEWRRH
9 |  |  |  | 88.7 | 65.3 | Venus-BimEL-I146Y (natural protein, mouse, UniProt O54918-1 1-196, looked up, BimEL, mouse; also called ^vBimEL-I146Y; source: MCF-7, transiently transfected, in live cells; not shown: Venus, N-terminal, kept) MAKQPSDVSSECDREGGQLQPAERPPQLRPGAPTSLQTEPQGNPDGEGDRCPHGSPQGPLAPPASPGPFATRSPLFIFVRRSSLLSRSSSGYFSFDTDRSPAPMSCDKSTQTPSPPCQAFNHYLSAMASIRQSQEEPEDLRPEIRYAQELRRIGDEFNETYTRRVFANDYREAEDHPQMVILQLLRFIFRLVWRRH
10 |  | 35 ± 5 | ~200 |  |  | BimL-dCTS, Alexa568-labelled (domain or fragment, Alexa568 on a single cysteine) MAKQPSDVSSECDREGGQLQPAERPPQLRPGAPTSLQTEPCDRSPAPMSCDKSTQTPSPPCQAFNHYLSAMASIRQSQEEPEDLRPEIRIAQELRRIGDEFNETYTRRVFANDYREAEDHP
